Values joined by “and” are separate entries in the source; they are usually repeats but may differ in a detail not shown here. Equal values may be shown once.
For 4E10 (antibody), the Kd (JRFL APA) was 1380 nM, the koff (JRFL APA) was 0.001 s⁻¹ and the kon (JRFL APA) was 720 M⁻¹ s⁻¹. For the same substance, the Kd (JRFL APA DEG) was 140 nM and 150 nM and 180 nM, the koff (JRFL APA DEG) was 0.001 s⁻¹ and the kon (JRFL APA DEG) was 6800 M⁻¹ s⁻¹ and 6600 M⁻¹ s⁻¹ and 5500 M⁻¹ s⁻¹.

From patent US20160271244A1
